In patent US7282483 (Amgen, dated 2007):

Target: T1, TNF-β (lymphotoxin) (UniProt P01374 35-205, limits assumed)
T1 sequence (looked up): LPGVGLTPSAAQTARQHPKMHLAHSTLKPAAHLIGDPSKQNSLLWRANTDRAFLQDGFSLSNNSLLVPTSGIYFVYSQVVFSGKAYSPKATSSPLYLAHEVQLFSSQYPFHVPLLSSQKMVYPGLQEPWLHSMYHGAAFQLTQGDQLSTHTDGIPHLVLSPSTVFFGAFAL
Test: preliminary tests, analogous to the competition binding test

B1: TNF-binding protein (TNF-BP), natural, purified from dialyzed urine of uraemia patients (receptor)
chain: DSVCPQGKYIHPQNNSICCTKCHKGTYLYNDCPGPGQDTDCRECESGSFTASENHLRHCLSCSKCRKEMGQVEISSCTVDRDTVCGCRKNQYRHYWSENLFQCFNCSLCLNGTVHLSCQEKQNTVCTCHAGFFLRENECVSCSNCKKSLECTKLCLPQIEN
modifications: glycoprotein; Asn-25 glycosylated (numbering of the TNF-BP cDNA sequence, Leu-1 = first residue after the signal peptide)
notes: Main form (about 80 %) starts at Asp-12; In the preliminary tests it was used as concentrated dialyzed urine or partly purified preparations
affinity for TNF-β relative to its affinity for TNF-α: ~0.02 ratio (affinity for TNF-β / affinity for TNF-α)
